B1: R-spondin-1 (Homo sapiens), Q2MKA7 (parent)
chain: MRLGLCVVALVLSWTHLTISSRGIKGKRQRRISAEGSQACAKGCELCSEVNGCLKCSPKLFILLERNDIRQVGVCLPSCPPGYFDARNPDMNKCIKCKIEHCEACFSHNFCTKCKEGLYLHKGRCYPACPEGSSAANGTMECSSPAQCEMSEWSPWGPCSKKQQLCGFRRGSEERTRRVLHAPVGDHAACSDTKETRRCTVRRVPCPEGQKRRKGGQGRRENANRNLARKESKEAGAGSRRRKGQQQQQQQGTVGPLTSAGPA

Variants of: B1
Settings: with znrf3_human ZNRF3, Q9ULT6
znrf3_human ZNRF3, Q9ULT6, sequence (Q9ULT6 whole entry): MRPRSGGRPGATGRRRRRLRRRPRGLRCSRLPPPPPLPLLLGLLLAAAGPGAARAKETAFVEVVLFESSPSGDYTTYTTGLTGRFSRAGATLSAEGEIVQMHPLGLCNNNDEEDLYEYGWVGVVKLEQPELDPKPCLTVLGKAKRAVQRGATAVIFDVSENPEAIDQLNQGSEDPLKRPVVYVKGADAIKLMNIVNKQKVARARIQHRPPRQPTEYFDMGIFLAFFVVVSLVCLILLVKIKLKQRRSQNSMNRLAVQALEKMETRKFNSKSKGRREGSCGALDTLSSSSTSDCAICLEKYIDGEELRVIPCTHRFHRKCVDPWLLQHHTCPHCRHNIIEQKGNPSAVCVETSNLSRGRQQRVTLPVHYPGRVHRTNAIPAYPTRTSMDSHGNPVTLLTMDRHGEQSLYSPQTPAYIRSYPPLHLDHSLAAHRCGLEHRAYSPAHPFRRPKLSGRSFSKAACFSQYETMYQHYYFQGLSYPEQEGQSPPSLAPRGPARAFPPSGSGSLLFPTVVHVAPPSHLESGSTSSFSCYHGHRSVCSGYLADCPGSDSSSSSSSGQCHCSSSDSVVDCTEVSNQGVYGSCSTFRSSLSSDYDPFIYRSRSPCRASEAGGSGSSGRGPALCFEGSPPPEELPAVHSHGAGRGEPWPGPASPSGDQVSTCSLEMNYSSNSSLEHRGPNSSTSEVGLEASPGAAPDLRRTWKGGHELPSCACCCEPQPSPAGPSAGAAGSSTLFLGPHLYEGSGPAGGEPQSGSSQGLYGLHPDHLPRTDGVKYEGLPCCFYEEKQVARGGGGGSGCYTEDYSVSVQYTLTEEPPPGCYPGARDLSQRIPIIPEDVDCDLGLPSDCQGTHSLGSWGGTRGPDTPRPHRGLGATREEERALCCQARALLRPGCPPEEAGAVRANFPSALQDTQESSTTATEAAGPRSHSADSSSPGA

| effect of a mutation on the interaction | Variant |
| --- | --- |
| disrupting interaction | R66A |
